Laboratory results from publication PMC9681084, “MYB44-ENAP1/2 restricts HDT4 to regulate drought tolerance in Arabidopsis” (PLOS Genetics, 2022).

B1: His-HDT4 (enzyme, Arabidopsis, UniProt Q9M4T3 1-203, looked up)
chain: MEFWGIEIKPGKPFKVIQKDGFMVHASQVTLGDVEKVKKDETFAVYVKIGDDENGFMIGNLSQKFPQFSIDLYLGHEFEISHNSTSSVYLIGYRTFDAFDELDEEIDSDSELDEYMEQQIAALPQNEINPEEDDESDSDEMGLDEDDDSSDEEDVEAEAPLKVAPPSKKMPNGAFEIAKGGKKNKSSGGKKRCPFPCGPSCKK
notes: HDT4, histone deacetylase of the HD2 family, Arabidopsis; the CDS ligated to pET28a; source: E. coli, purified (Ni-NTA agarose resin)
B2: MBP-ENAP1 (natural protein, Arabidopsis, UniProt Q8VZI9 1-249, looked up)
chain: METTPETQSKTHRLPAGREDWWSEDATATLIEAWGDRYVNLNRGNLRQNDWKEVADAVNSSHGNGRPKTDVQCKNRIDTLKKKYKTEKAKPLSNWCFFDRLDFLIGPVMKKSSGAVVKSALMNPNLNPTGSKSTGSSLDDDDDDDDDDEEDDDDAGDWGFVVRKHRKVEDVDSSEGSAFRELARSILKLGEAFERIEGKKQQMMIELEKQRMEVAKELELQRMNMLMEMQLELEKSKLGKRRAASGKKL
notes: ENAP1, Arabidopsis, AT3G11100; the CDS ligated to pVP13 (His tag removed); source: E. coli, purified (Amylose resin)

Biological target: T1, GST-MYB44 (Arabidopsis, UniProt Q9FDW1 1-305)
T1 construct: MYB44, Arabidopsis; the CDS ligated to pGEX-KG; source: E. coli, purified (Glutathione Sepharose resin)
Test: pull-down; GST-MYB44 as bait, GST as control; purified proteins from E. coli incubated overnight at 4°C, washed four times, western blot
Details: both partners purified

T1 sequence (Q9FDW1 whole entry): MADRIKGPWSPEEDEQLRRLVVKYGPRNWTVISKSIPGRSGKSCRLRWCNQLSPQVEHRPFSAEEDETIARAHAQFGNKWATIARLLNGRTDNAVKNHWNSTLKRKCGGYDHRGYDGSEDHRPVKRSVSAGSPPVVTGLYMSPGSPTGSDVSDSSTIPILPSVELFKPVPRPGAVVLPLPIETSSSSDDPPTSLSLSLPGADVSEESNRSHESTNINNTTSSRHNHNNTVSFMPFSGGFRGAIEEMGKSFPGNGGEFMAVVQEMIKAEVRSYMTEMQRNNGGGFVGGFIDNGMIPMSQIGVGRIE

Binder | binding result
B1 | binds
B2 | binds
